Measurements: patent US20010023062A1

Assays:
[1] = target: IL-5Rα/IFNaR2-2 + βc/IFNaR1 (human) (UniProt Q01344); test: cell-based or functional assay
[2] = target: IL-5Rα/IFNaR1 + βc/IFNaR2-2 (human) (UniProt Q01344); test: cell-based or functional assay

SEAP activity (6-16SEAP reporter, transient transfection of 2fTGH cells), 1 ng/ml IL-5, against untreated cells [1] [fold]	SEAP activity (6-16SEAP reporter, transient transfection of 2fTGH cells), 2 ng/ml IL-5, against untreated cells [1] [fold]	colonies in HAT + IL-5 (6-16 gpt selection, transfected 2fTGH cells, 1 ng/ml IL-5) [1] [colonies]	colonies in HAT + IL-5 (6-16 gpt selection, transfected 2fTGH cells, 1 ng/ml IL-5) [2] [colonies]	Substance	colonies surviving in HAT medium without added IL-5 (clone C cells transfected with pEFBOS-hIL-5syn) [1] [colonies]
5	6	13	3	IL-5 (produced in Sf9 cells using published methodologies) (from UniProt P05113 20-134) (ligand)	
				hIL-5syn (human IL-5 expressed by the cells from pEFBOS-hIL-5syn or pMET7-hIL-5syn) (from UniProt P05113 20-134) (ligand)	6
